Data as given in patent publication US20240360223A1 (DRAGONFLY THERAPEUTICS, published 2024).
Where “and” joins values, the source holds several entries; their conditions need not be identical. Equal entries are not always repeated. Where two headings read alike, the source gives them in different places.

How the values were obtained:
[1] = biological target: T1, human CD64 (human, UniProt P12314 16-288, limits assumed); assay: SPR
T1 construct: also called FcγRI
Method: Binding analyses as described in this Example were performed using SPR, as described in Example 4.

[2] = biological target: T2, cynomolgus CD16 (cynomolgus, UniProt Q8SPW2 17-208, limits assumed); assay: SPR, average
T2 construct: also called Cyno CD16; cynomolgus FcγRIII

[3] = biological target: T3, human CD32b (human, UniProt P31994 46-217, limits assumed); assay: SPR, steady state
T3 construct: also called FcγRIIb
T3 sequence (looked up): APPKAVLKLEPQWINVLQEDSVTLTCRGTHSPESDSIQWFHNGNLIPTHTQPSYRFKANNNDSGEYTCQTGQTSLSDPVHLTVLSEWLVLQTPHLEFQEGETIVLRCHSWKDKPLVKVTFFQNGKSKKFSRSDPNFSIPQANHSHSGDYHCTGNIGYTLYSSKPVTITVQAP

[4] = biological target: T4, human BAFF-R expressed on cells (human, UniProt Q96RJ3 1-184); assay: KinExA, BAFF-R-CHO cells
T4 construct: Cell surface BAFF-R, endogenous on B cell lines and primary B cells or overexpressed on isogenic CHO cells; also called hBAFF-R; hBAFF-R-CHO

[5] = biological target: T5, human NKG2D (recombinant mFc-tagged dimer) (human, UniProt P26718 78-216); assay: SPR, kinetics fit, average
T5 construct: also called hNKG2D
T5 sequence (looked up): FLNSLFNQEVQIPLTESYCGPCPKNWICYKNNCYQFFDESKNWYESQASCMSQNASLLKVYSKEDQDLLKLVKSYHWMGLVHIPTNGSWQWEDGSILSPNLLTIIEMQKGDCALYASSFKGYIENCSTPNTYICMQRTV
Description: NKG2D is a native dimer, therefore recombinant mFc-tagged NKG2D dimer was used for this experiment. Two different fits were utilized to obtain the equilibrium affinity data: steady state affinity fit and kinetic fit.

[6] = biological target: T6, cynomolgus monkey BAFF-R expressed on cells (cynomolgus monkey); assay: flow cytometry, cyno BAFF-R CHO cells
T6 construct: whole, on cells; also called cBAFF-R; cynoBAFF-R

[7] = biological target: T4, human BAFF-R expressed on cells; assay: flow cytometry, human BAFF-R CHO cells
[8] = biological target: T4, human BAFF-R expressed on cells; assay: flow cytometry, human BAFF-R CHO cells; remark: listed apart in the source
Description: Isogenic cell lines overexpressing human and cynomolgus BAFF-R on the backbone of CHO cell line were designed.

[9] = biological target: T7, human CD16a V158 (human, UniProt P08637 17-208); assay: SPR, recombinant receptor; reference trastuzumab
T7 construct: also called hCD16aV; hCD16a V158

[10] = biological target: human CD16a F158 (human, UniProt P08637 17-208); assay: SPR, recombinant receptor; reference trastuzumab
[11] = biological target: T2, cynomolgus CD16; assay: SPR, recombinant receptor; reference trastuzumab
[12] = biological target: T1, human CD64; assay: SPR, recombinant receptor; reference trastuzumab
[13] = biological target: T8, human CD32a H131 (human, UniProt P12318 36-218, limits assumed); assay: SPR, recombinant receptor; reference trastuzumab
T8 sequence (looked up): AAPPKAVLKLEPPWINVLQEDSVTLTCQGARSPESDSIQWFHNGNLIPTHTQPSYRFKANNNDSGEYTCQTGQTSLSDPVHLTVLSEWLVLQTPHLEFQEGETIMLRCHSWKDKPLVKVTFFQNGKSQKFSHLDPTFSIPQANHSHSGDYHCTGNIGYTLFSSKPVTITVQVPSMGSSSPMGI

[14] = biological target: T9, human CD32a R131 (human, UniProt P12318 36-218, limits assumed); assay: SPR, recombinant receptor; reference trastuzumab
T9 construct: also called FcγRIIa R131
T9 sequence (looked up): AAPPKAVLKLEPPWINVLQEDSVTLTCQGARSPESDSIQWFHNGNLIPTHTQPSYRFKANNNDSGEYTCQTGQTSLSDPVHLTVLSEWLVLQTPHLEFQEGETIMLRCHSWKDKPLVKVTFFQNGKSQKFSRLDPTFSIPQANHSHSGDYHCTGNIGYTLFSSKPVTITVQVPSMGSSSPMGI

[15] = biological target: T3, human CD32b; assay: SPR, recombinant receptor; reference trastuzumab
[16] = biological target: T10, human CD16b (human, UniProt O75015 17-200, limits assumed); assay: SPR, recombinant receptor; reference trastuzumab
T10 construct: also called FcγRIIIb

[17] = biological target: human FcRn (human, UniProt P55899 24-297; P61769 21-119); assay: SPR, pH 6.0, steady state; pH 6.0; third replicate
[18] = biological target: T11, cynomolgus FcRn (cynomolgus, UniProt Q8SPV9 24-297; Q8SPW0 21-119); assay: SPR, pH 6.0, steady state; pH 6.0; first replicate
T11 construct: also called Cyno FcRn

[19] = biological target: T11, cynomolgus FcRn; assay: SPR, pH 6.0, steady state; pH 6.0; fourth replicate
[20] = biological target: T12, BCMA expressed on C6 cells (UniProt Q02223 1-184, limits assumed); assay: flow cytometry on BCMA-C6 cells, anti-human Fc-g-PE
T12 construct: whole, on cells; also called BCMA-C6; isogenic BCMA+ cells
T12 sequence (looked up): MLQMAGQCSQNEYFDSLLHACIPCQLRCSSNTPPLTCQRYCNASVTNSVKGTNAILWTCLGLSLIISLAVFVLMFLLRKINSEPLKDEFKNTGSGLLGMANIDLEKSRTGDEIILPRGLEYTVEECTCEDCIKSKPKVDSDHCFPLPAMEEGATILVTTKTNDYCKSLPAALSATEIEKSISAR
Description: A mAb with known BCMA specificity (EM901) was used as a positive control for BCMA detection.

[21] = biological target: T4, human BAFF-R expressed on cells; assay: flow cytometry on hBAFFR-CHO cells, anti-human Fc-g-PE, fold over background

T2 sequence (Q8SPW2 17-208 limits assumed): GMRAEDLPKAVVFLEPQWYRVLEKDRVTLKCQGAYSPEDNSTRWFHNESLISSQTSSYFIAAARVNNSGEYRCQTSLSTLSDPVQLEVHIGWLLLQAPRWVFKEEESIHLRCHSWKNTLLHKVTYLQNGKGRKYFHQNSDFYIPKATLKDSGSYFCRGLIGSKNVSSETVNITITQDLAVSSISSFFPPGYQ
T1 sequence (P12314 16-288 limits assumed): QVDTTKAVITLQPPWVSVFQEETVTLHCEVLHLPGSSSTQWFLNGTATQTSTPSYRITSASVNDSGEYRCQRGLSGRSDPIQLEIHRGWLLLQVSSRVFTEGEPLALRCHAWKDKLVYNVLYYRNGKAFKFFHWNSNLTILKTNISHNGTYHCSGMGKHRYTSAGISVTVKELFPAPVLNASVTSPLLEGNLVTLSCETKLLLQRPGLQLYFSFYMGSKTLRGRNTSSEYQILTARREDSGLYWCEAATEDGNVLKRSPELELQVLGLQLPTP
T11 sequence (Q8SPV9 24-297 limits assumed, chain 1 of 2): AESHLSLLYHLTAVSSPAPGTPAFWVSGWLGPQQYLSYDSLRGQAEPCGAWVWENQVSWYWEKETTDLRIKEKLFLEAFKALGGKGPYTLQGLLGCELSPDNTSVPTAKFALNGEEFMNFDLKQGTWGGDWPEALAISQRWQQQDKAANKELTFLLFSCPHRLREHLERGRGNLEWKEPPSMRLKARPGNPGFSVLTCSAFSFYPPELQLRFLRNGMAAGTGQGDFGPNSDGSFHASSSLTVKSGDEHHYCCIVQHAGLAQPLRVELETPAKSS
T11 sequence (Q8SPW0 21-119 limits assumed, chain 2 of 2): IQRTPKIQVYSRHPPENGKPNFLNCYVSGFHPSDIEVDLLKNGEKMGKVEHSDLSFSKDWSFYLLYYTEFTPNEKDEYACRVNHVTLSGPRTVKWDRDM
T7 sequence (P08637 17-208 F176V limits assumed): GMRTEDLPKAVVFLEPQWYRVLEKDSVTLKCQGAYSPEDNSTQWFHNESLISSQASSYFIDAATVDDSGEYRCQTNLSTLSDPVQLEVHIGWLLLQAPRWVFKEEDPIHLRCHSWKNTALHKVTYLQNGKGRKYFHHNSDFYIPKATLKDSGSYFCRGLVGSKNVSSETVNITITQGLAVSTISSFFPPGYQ
Sequence of human FcRn (P55899 24-297 limits assumed, chain 1 of 2): as the sequence (Q8SPV9 24-297 limits assumed, chain 1 of 2) above, with D39N, Q44E, S99G, G189S, N190S, M217L, T269S counted along it
Sequence of human FcRn (P61769 21-119 limits assumed, chain 2 of 2): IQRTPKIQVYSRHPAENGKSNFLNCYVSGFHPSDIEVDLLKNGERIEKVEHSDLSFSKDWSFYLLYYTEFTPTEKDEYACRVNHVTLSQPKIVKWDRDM
T10 sequence (O75015 17-200 limits assumed): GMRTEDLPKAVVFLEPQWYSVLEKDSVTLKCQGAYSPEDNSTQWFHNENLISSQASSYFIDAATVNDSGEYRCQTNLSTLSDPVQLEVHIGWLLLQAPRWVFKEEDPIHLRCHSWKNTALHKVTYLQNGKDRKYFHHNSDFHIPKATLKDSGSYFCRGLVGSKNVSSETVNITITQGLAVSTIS
Sequence of human CD16a F158 (P08637 17-208 limits assumed): as the sequence (P08637 17-208 F176V limits assumed) above, with V160F counted along it

B1: AB1424/AB1612 F3′ TriNKET (bispecific antibody, human IgG1, kappa)
chain: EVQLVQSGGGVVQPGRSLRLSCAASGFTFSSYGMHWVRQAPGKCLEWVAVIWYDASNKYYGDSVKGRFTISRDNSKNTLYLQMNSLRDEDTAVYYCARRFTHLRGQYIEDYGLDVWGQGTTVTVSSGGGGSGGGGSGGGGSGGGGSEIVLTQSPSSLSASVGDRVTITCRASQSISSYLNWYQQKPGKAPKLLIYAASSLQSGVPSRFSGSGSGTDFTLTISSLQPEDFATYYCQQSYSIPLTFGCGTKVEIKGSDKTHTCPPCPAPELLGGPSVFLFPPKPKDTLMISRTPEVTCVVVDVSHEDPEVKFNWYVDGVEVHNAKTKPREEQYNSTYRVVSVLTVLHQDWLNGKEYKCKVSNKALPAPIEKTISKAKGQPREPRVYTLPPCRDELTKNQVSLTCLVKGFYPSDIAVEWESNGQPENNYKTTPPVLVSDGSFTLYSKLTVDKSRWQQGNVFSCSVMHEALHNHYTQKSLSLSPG
heavy: EVQLVESGGGLVKPGGSLRLSCAASGFTFSSYSMNWVRQAPGKGLEWVSSISSSSSYIYYADSVKGRFTISRDNAKNSLYLQMNSLRAEDTAVYYCARGAPIGAAAGWFDPWGQGTLVTVSSASTKGPSVFPLAPSSKSTSGGTAALGCLVKDYFPEPVTVSWNSGALTSGVHTFPAVLQSSGLYSLSSVVTVPSSSLGTQTYICNVNHKPSNTKVDKKVEPKSCDKTHTCPPCPAPELLGGPSVFLFPPKPKDTLMISRTPEVTCVVVDVSHEDPEVKFNWYVDGVEVHNAKTKPREEQYNSTYRVVSVLTVLHQDWLNGKEYKCKVSNKALPAPIEKTISKAKGQPREPQVCTLPPSRDELTENQVSLTCLVKGFYPSDIAVEWESNGQPENNYKTTPPVLDSDGSFFLYSWLTVDKSRWQQGNVFSCSVMHEALHNHYTQKSLSLSPG
light: DIQMTQSPSSVSASVGDRVTITCRASQGISSWLAWYQQKPGKAPKLLIYAASSLQSGVPSRFSGSGSGTDFTLTISSLQPEDFATYYCQQGVSFPRTFGGGTKVEIKRTVAAPSVFIFPPSDEQLKSGTASVVCLLNNFYPREAKVQWKVDNALQSGNSQESVTEQDSKDSTYSLSSTLTLSKADYEKHKVYACEVTHQGLSSPVTKSFNRGEC
notes: Chain S: anti-BAFF-R scFv-CH2-CH3; chain H: anti-NKG2D VH-CH1-CH2-CH3; chain L: anti-NKG2D VL-CL; also called AB1612-002
Kd [1]: 2.9 nM and 3.1 nM and 3.4 nM and 3.2 nM
koff [1]: 0.00022 s⁻¹ and 0.00023 s⁻¹
kon [1]: 77000 M⁻¹ s⁻¹ and 73000 M⁻¹ s⁻¹ and 69000 M⁻¹ s⁻¹ and 72000 M⁻¹ s⁻¹
Kd [2]: 271 nM
koff [2]: 0.021 s⁻¹
kon [2]: 76000 M⁻¹ s⁻¹
Kd [3]: 5900 nM and 5500 nM and 5800 nM and 6300 nM
Kd [4]: 2.55 nM
Kd [5]: 456 nM
EC50 [6]: 1.85 nM
EC50 [7]: 3.09 nM
EC50 [8]: 0.9 nM
Max FOB [8]: 85 fold over background
fold difference in binding against trastuzumab [9]: < 3 fold
fold difference in binding against trastuzumab [10]: < 3 fold
fold difference in binding against trastuzumab [11]: < 3 fold
fold difference in binding against trastuzumab [12]: < 3 fold
fold difference in binding against trastuzumab [13]: < 1.2 fold
fold difference in binding against trastuzumab [14]: < 1.2 fold
fold difference in binding against trastuzumab [15]: < 1.2 fold
fold difference in binding against trastuzumab [16]: < 3 fold
Kd [17]: 1100 nM
Kd [18]: 1000 nM
Kd [19]: 1000 nM
binding result [20]: no binding (tested: about 50 nM)
EC50 (read off the curve) [21]: ~0.8 nM
